Experimental data reported in PMC10988696, “FLIM‐FRET‐based analysis of S100A11/annexin interactions in living cells” (FEBS Open Bio, 2024).
Like-named read-outs stand apart in the source and are kept apart here.

B1: S100A11-mCherry (natural protein, human, UniProt P31949 1-105, looked up)
chain: MAKISSPTETERCIESLIAVFQKYAGKDGYNYTLSKTEFLSFMNTELAAFTKNQKDPGVLDRMMKKLDTNSDGQLDFSEFLNLIGGLAMACHDSFLKAVPSQKRT
notes: human S100A11 wild type; cloned in pmCherry-N1 (EcoRI, BamHI); End of the tag read from the label S100A11-mCherry and the vector pmCherry-N1; also called S100A11wt; wild-type S100A11-mCherry; source: U2OS or HEK293T cells, transfected (calcium phosphate), in living cells; not shown: mCherry, C-terminal, kept

Key:
Assay in all cases: FRET or BRET; FLIM-FRET (EGFP donor lifetime, mCherry acceptor) in living U2OS cells co-transfected with both constructs, imaged in PBS 42-45 h after transfection, normal cytosolic calcium; E = 1 - tauDA/tauD from amplitude-weighted mean lifetimes
EGFP-ANXA2 = target: T1, EGFP-ANXA2 (human, UniProt P07355 1-339)
T1 construct: human annexin A2 (ANXA2) with the fluorescent protein tag in the altered orientation (EGFP-ANXA2); The cloning of this orientation is not described in the methods; source: U2OS or HEK293T cells, transfected (calcium phosphate), in living cells; not shown: EGFP, N-terminal, kept
T1 sequence (P07355 whole entry): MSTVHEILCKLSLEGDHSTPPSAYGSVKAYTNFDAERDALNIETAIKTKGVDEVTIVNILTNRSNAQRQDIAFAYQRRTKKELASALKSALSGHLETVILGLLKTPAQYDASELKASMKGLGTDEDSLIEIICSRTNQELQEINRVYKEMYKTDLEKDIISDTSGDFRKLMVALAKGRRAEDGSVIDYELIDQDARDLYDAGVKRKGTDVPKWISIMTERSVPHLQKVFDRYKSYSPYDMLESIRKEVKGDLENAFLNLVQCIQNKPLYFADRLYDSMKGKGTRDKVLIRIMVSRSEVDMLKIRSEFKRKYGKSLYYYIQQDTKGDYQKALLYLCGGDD

ANXA2-EGFP = target: T2, ANXA2-EGFP (human, UniProt P07355 1-339); conditions: partners not purified
T2 construct: human annexin A2 (ANXA2); EGFP is the FRET donor; also called annexin A2; source: U2OS cells, transfected (calcium phosphate), in living cells; not shown: EGFP, C-terminal, kept
T2 sequence (P07355 whole entry): as above

ANXA4-EGFP = target: T3, ANXA4-EGFP (human, UniProt P09525 1-319); conditions: partners not purified
T3 construct: human annexin A4, PCR amplified from A431 cDNA; cloned in pEGFP-N1 (HindIII, BamHI); also called annexin A4; source: U2OS cells, transfected (calcium phosphate), in living cells; not shown: EGFP, C-terminal, kept
T3 sequence (looked up): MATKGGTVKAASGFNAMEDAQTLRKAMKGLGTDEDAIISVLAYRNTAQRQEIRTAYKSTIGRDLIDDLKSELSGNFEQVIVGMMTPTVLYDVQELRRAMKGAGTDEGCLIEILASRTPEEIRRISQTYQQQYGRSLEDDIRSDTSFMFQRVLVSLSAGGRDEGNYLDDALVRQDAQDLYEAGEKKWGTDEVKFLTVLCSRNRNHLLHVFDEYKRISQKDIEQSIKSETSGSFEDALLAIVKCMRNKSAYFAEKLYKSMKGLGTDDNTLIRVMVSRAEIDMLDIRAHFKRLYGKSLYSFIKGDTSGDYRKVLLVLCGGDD

AnxA6-EGFP = target: T4, AnxA6-EGFP (rat, UniProt P48037 1-673); conditions: partners not purified
T4 construct: rat annexin A6; plasmid provided by C; End of the tag read from the label AnxA6-EGFP; also called rat annexin A6; source: U2OS cells, transfected (calcium phosphate), in living cells; not shown: EGFP, C-terminal, kept
T4 sequence (looked up): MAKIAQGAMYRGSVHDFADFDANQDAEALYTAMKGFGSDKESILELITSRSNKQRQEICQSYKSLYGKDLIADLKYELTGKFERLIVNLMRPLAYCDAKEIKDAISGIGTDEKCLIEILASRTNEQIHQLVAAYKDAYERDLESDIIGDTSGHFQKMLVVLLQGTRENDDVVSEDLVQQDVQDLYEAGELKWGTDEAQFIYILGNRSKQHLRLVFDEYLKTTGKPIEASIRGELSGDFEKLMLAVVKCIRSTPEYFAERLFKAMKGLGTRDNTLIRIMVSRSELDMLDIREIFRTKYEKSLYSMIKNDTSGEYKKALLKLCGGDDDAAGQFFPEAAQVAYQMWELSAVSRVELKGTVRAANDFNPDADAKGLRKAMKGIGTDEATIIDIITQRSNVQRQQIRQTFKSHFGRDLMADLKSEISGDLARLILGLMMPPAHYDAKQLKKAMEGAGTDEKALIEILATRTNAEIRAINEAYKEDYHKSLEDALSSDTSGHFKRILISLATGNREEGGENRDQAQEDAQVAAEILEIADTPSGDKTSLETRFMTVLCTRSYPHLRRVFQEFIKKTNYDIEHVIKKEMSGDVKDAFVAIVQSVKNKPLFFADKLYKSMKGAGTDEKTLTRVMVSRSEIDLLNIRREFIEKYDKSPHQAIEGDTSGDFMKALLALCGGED

ANXA1-EGFP = target: T5, ANXA1-EGFP (human, UniProt P04083 1-346); conditions: partners not purified
T5 construct: human annexin A1, PCR amplified from A431 cDNA; cloned in pEGFP-N1 (XhoI, BamHI); End of the tag read from the label ANXA1-EGFP and the vector pEGFP-N1; also called annexin A1; source: U2OS cells, transfected (calcium phosphate), in living cells; not shown: EGFP, C-terminal, kept
T5 sequence (looked up): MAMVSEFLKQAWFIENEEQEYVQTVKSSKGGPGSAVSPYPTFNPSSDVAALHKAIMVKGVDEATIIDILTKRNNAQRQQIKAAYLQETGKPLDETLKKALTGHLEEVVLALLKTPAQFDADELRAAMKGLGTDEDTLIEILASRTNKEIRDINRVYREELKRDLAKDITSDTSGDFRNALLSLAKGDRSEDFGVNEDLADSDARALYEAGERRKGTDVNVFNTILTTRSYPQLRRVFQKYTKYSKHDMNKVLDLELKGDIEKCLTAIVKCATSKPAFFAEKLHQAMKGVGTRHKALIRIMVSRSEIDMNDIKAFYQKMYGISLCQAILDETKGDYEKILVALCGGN

Row | FRET efficiency (E) (EGFP-ANXA2) | FRET efficiency (E) (ANXA2-EGFP) | FRET efficiency (E) (ANXA4-EGFP) | FRET efficiency (E) (AnxA6-EGFP) | FRET efficiency (E) (ANXA1-EGFP) | FRET efficiency (E) (EGFP-ANXA2; partners not purified) | Molecule
1 | 3.7% | – | – | – | – | – | S100A11ΔCa-mCherry (from UniProt P31949 1-105) (natural protein)
2 | – | 7.5% | ~5% | ~6% | 5.3% | ~9% | B1
